Patent US20050136043A1, “TGFbeta signaling inhibitors” (Ludwig Institute for Cancer Research, priority 2003, published 2005)

Legend:
Format in all cases: biochemical
[1] = target: T1, GST-TβR-I (Homo sapiens, UniProt P36897, T204D); experiment: Phosphorylation of GST-Smad2 by GST-TβR-I, in vitro kinase assay; settings: for Inhibition of phosphorylation at the C-terminus of GST-Smad2: FIG. 4B; for Concentration at which effect of Sm2 peptides was observed / Concentration of maximal inhibition: in vitro kinase assay; for Concentration of maximal inhibition: data not shown
T1 construct: the complete cytoplasmic part (amino acid residues 148-503) of constitutively active TβR-I (T204D) FLAG-tagged at the C-terminus; made in house; host or cells: E. coli
T1 sequence (P36897 148-503 T204D): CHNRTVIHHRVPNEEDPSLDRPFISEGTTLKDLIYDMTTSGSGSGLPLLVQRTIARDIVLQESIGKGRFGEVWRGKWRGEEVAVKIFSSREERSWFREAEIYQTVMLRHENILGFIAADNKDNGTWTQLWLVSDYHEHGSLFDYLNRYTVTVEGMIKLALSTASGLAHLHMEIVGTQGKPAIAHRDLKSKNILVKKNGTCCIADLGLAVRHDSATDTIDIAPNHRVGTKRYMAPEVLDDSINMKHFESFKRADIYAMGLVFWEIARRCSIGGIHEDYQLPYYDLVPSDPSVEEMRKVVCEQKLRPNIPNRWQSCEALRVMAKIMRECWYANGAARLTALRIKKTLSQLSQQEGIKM
Description: (§1) In vitro kinase assay: GST-TβRI activity was assayed in vitro using the known TβR-I substrates GST-Smad3deltaMH1, GST-Smad2; GST-Smad1 was used as a control for specificity. The reaction mixture (20 μl) contained 20 mM HEPES (pH 7.4), 10 mM MgCl2, 2 mM MnCl2, 1 mM dithiothreitol (DTT), 5 μM ATP plus 0.5 μCi [γ^32P]ATP (Redivue, Amersham Biosciences), and inhibitors at different concentrations. The reaction was initiated by an addition of 0.02 μg purified GST-TβRI, followed by incubation at 22° C. for 20 min. Reaction was terminated by addition of 5 μl of 5× SDS-sample buffer. Samples were subjected to SDS-PAGE followed by analysis in a FujiX2000 phosphorimager. For all in vitro enzyme assays, the percent inhibition was calculated as 100×(1-Ai/A0), where Ai and A0 are levels of GST-Smad phosphorylation in the presence and absence of inhibitors, respectively. […] Phosphorylated GST-Smad3deltaMH1 and autophosphorylated GST-TβRI were analyzed by tryptic phosphopeptide mapping, as described previously.
Phosphorylation of GST-Smad2 by GST-TβR-I was performed in an in vitro kinase assay (FIG. 4B). The peptides were added as indicated.

[2] = target: T1, GST-TβR-I; experiment: GST-TβR-I autophosphorylation assay; settings: peptides at 1 and 10 μM, FIG. 4A
Description: as §1
A GST-TβR-I autophosphorylation assay was performed in the absence or presence of antp-Sm2S (SEQ ID NO:3), antp-Sm2A (SEQ ID NO:2) and antp-Sm5A (SEQ ID NO:4) peptides at concentrations of 1 and 10 μM, as indicated (FIG. 4A).

[3] = target: T2, constitutively active TβR-I (Homo sapiens, UniProt P36897, T204D); experiment: In vitro kinase assay with immunoprecipitated constitutively active TβR-I expressed in Mv1Lu cells; settings: immunoprecipitated from Mv1Lu cells, data not shown
T2 construct: made in house; host or cells: Mv1Lu cells (expressed, immunoprecipitated)
T2 sequence (P36897 34-503 T204D): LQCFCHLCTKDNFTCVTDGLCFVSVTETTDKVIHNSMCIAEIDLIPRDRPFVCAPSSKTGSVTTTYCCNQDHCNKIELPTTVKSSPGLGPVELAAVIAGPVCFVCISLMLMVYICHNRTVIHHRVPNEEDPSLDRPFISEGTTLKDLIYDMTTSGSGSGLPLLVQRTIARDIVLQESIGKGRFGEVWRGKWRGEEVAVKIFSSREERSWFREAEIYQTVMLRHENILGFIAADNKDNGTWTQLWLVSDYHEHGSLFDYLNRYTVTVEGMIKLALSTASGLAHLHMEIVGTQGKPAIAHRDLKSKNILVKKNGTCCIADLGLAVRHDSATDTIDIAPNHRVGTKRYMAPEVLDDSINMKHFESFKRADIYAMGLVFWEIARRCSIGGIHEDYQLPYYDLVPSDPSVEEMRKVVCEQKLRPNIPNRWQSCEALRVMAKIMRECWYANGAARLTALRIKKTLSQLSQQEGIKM

Sequence	Inhibition of phosphorylation at the C-terminus of GST-Smad2 [1]	Concentration at which effect of Sm2 peptides was observed [1] [µM]	Concentration of maximal inhibition [1] [µM]	Inhibition of autophosphorylation of GST-TβR-I [2]	Inhibition of autophosphorylation of TβR-I [3]
RQIKIWFQNRRMKWKKTQMGSPSVRCSSMS (listed as Homo sapiens) [antp-Sm2S, penetratin fused to the C-terminus of wild-type Smad2]	less pronounced	10	200	inhibited autophosphorylation	inhibited autophosphorylation
RQIKIWFQNRRMKWKKTQMGSPSVRCSAMA (listed as Homo sapiens) [antp-Sm2A]	inhibited	10	200	had a stronger effect	inhibited autophosphorylation
